System: (GR)10
Test: Cleavage of (GR)10 by enzymes in solution (PBS with CaCl2 and MgCl2), LC/MS of GR repeats
Format: biochemical
Settings: for (GR)1 concentration / (GR)2 concentration / (GR)3 concentration / (GR)4 concentration / (GR)5 concentration / (GR)6 concentration / (GR)8 concentration / (GR)10 concentration: (GR)10 50 μM; for (GR)1 / (GR)2 / (GR)3 / (GR)4 / (GR)5 / (GR)6 / (GR)8 / (GR)10: PBS, normalized
Experimental: • (GR)10 dipeptide (also (GR)8, (GR)6, (GR)4, (GR)2) were synthetized by solid-phase synthesis by CanPeptide; All peptides are uncapped and supplied lyophilized with TFA as counter ions. Purity was always above 95%. • Buffer: PBS buffer containing CaCl2 and MgCl2. • Stock solution of enzyme (e.g., 10 mg/mL) (prepared per manufacturer instructions) in PBS. Activators added as necessary. • Working solution of protein of the desired concentration (e.g., 100 μg/mL) prepared immediately before use by diluting the stock solution (e.g., 5 μL of 10 mg/mL stock solution) in PBS buffer (e.g., in 495 μL of PBS). Exemplary Procedure Using 50 μM Concentrations of (GR)10
25 μL of a 100 μM solution of (GR)10 was added to each well of a 96-well plate. 25 μL of a solution of enzyme (two times the desired final enzyme concentration) was added, and the plates were incubated at room temperature. At the specified time points (5 minutes, 10 minutes, 30 minutes, 60 minutes, and 180 minutes) 2.5 μL of a 10% TFA solution were added to stop the reaction. For the time 0 min well, the TFA was added to the well before addition of the enzyme. After last time point, all samples were further diluted with 150 μL of dilution solution. The quenched reaction mixtures were analyzed by LC/MS to determine the concentration of GR repeats of different lengths.
The chromatography and mass spectrometry conditions utilized are shown in Table 2 and Table 3, respectively.

B1: Trypsin: protease cleaving at the carboxyl side of lysine or arginine; in Table 21 also immobilized in-house on NHS-activated agarose resin (protein, UniProt P00760 24-246, looked up)
Serine protease 1: IVGGYTCGANTVPYQVSLNSGYHFCGGSLINSQWVVSAAHCYKSGIQVRLGEDNINVVEGNEQFISASKSIVHPSYNSNTLNNDIMLIKLKSAASLNSRVASISLPTSCASAGTQCLISGWGNTKSSGTSYPDVLKCLKAPILSDSSCKSAYPGQITSNMFCAGYLEGGKDSCQGDSGGPVVCSGKLQGIVSWGSGCAQKNKPGVYTKVCNYVSWIKQTIASN
(GR)1 concentration (enzyme 2.5 μg/mL, 0 min): BLQ | (GR)2 concentration (enzyme 2.5 μg/mL, 0 min): BLQ | (GR)3 concentration (enzyme 2.5 μg/mL, 0 min): BLQ | (GR)4 concentration (enzyme 2.5 μg/mL, 0 min): BLQ | (GR)5 concentration (enzyme 2.5 μg/mL, 0 min): BLQ | (GR)6 concentration (enzyme 2.5 μg/mL, 0 min): BLQ | (GR)8 concentration (enzyme 2.5 μg/mL, 0 min): 0.5 µM | (GR)10 concentration (enzyme 2.5 μg/mL, 0 min): 52.8 µM | (GR)1 concentration (enzyme 2.5 μg/mL, 5 min): 114.3 µM | (GR)2 concentration (enzyme 2.5 μg/mL, 5 min): 157.8 µM | (GR)3 concentration (enzyme 2.5 μg/mL, 5 min): 0.1 µM | (GR)4 concentration (enzyme 2.5 μg/mL, 5 min): BLQ | (GR)5 concentration (enzyme 2.5 μg/mL, 5 min): BLQ | (GR)6 concentration (enzyme 2.5 μg/mL, 5 min): BLQ | (GR)8 concentration (enzyme 2.5 μg/mL, 5 min): 0.1 µM | (GR)10 concentration (enzyme 2.5 μg/mL, 5 min): 2.2 µM | (GR)1 concentration (enzyme 2.5 μg/mL, 10 min): 124.7 µM | (GR)2 concentration (enzyme 2.5 μg/mL, 10 min): 167.7 µM | (GR)3 concentration (enzyme 2.5 μg/mL, 10 min): 0.1 µM | (GR)4 concentration (enzyme 2.5 μg/mL, 10 min): BLQ | (GR)5 concentration (enzyme 2.5 μg/mL, 10 min): BLQ | (GR)6 concentration (enzyme 2.5 μg/mL, 10 min): BLQ | (GR)8 concentration (enzyme 2.5 μg/mL, 10 min): BLQ | (GR)10 concentration (enzyme 2.5 μg/mL, 10 min): BLQ | (GR)1 concentration (enzyme 2.5 μg/mL, 30 min): 137.7 µM | (GR)2 concentration (enzyme 2.5 μg/mL, 30 min): 144.9 µM | (GR)3 concentration (enzyme 2.5 μg/mL, 30 min): BLQ | (GR)4 concentration (enzyme 2.5 μg/mL, 30 min): BLQ | (GR)5 concentration (enzyme 2.5 μg/mL, 30 min): BLQ | (GR)6 concentration (enzyme 2.5 μg/mL, 30 min): BLQ | (GR)8 concentration (enzyme 2.5 μg/mL, 30 min): BLQ | (GR)10 concentration (enzyme 2.5 μg/mL, 30 min): BLQ | (GR)1 concentration (enzyme 2.5 μg/mL, 60 min): 163.2 µM | (GR)2 concentration (enzyme 2.5 μg/mL, 60 min): 134.1 µM | (GR)3 concentration (enzyme 2.5 μg/mL, 60 min): BLQ | (GR)4 concentration (enzyme 2.5 μg/mL, 60 min): BLQ | (GR)5 concentration (enzyme 2.5 μg/mL, 60 min): BLQ | (GR)6 concentration (enzyme 2.5 μg/mL, 60 min): BLQ | (GR)8 concentration (enzyme 2.5 μg/mL, 60 min): BLQ | (GR)10 concentration (enzyme 2.5 μg/mL, 60 min): BLQ | (GR)1 concentration (enzyme 2.5 μg/mL, 120 min): 215.2 µM | (GR)2 concentration (enzyme 2.5 μg/mL, 120 min): 107.7 µM | (GR)3 concentration (enzyme 2.5 μg/mL, 120 min): BLQ | (GR)4 concentration (enzyme 2.5 μg/mL, 120 min): BLQ | (GR)5 concentration (enzyme 2.5 μg/mL, 120 min): BLQ | (GR)6 concentration (enzyme 2.5 μg/mL, 120 min): BLQ | (GR)8 concentration (enzyme 2.5 μg/mL, 120 min): BLQ | (GR)10 concentration (enzyme 2.5 μg/mL, 120 min): BLQ | (GR)1 concentration (enzyme 10 μg/mL, 0 min): 0.1 µM | (GR)2 concentration (enzyme 10 μg/mL, 0 min): BLQ | (GR)3 concentration (enzyme 10 μg/mL, 0 min): BLQ | (GR)4 concentration (enzyme 10 μg/mL, 0 min): BLQ | (GR)5 concentration (enzyme 10 μg/mL, 0 min): BLQ | (GR)6 concentration (enzyme 10 μg/mL, 0 min): BLQ | (GR)8 concentration (enzyme 10 μg/mL, 0 min): 0.5 µM | (GR)10 concentration (enzyme 10 μg/mL, 0 min): 48.9 µM | (GR)1 concentration (enzyme 10 μg/mL, 5 min): 124.4 µM | (GR)2 concentration (enzyme 10 μg/mL, 5 min): 138.9 µM | (GR)3 concentration (enzyme 10 μg/mL, 5 min): BLQ | (GR)4 concentration (enzyme 10 μg/mL, 5 min): BLQ | (GR)5 concentration (enzyme 10 μg/mL, 5 min): BLQ | (GR)6 concentration (enzyme 10 μg/mL, 5 min): BLQ | (GR)8 concentration (enzyme 10 μg/mL, 5 min): BLQ | (GR)10 concentration (enzyme 10 μg/mL, 5 min): 2.0 µM | (GR)1 concentration (enzyme 10 μg/mL, 10 min): 156.5 µM | (GR)2 concentration (enzyme 10 μg/mL, 10 min): 148.1 µM | (GR)3 concentration (enzyme 10 μg/mL, 10 min): BLQ | (GR)4 concentration (enzyme 10 μg/mL, 10 min): BLQ | (GR)5 concentration (enzyme 10 μg/mL, 10 min): BLQ | (GR)6 concentration (enzyme 10 μg/mL, 10 min): BLQ | (GR)8 concentration (enzyme 10 μg/mL, 10 min): BLQ | (GR)10 concentration (enzyme 10 μg/mL, 10 min): BLQ | (GR)1 concentration (enzyme 10 μg/mL, 30 min): 212.6 µM | (GR)2 concentration (enzyme 10 μg/mL, 30 min): 110.1 µM | (GR)3 concentration (enzyme 10 μg/mL, 30 min): BLQ | (GR)4 concentration (enzyme 10 μg/mL, 30 min): BLQ | (GR)5 concentration (enzyme 10 μg/mL, 30 min): BLQ | (GR)6 concentration (enzyme 10 μg/mL, 30 min): BLQ | (GR)8 concentration (enzyme 10 μg/mL, 30 min): BLQ | (GR)10 concentration (enzyme 10 μg/mL, 30 min): BLQ | (GR)1 concentration (enzyme 10 μg/mL, 60 min): 289.7 µM | (GR)2 concentration (enzyme 10 μg/mL, 60 min): 58.6 µM | (GR)3 concentration (enzyme 10 μg/mL, 60 min): BLQ | (GR)4 concentration (enzyme 10 μg/mL, 60 min): BLQ | (GR)5 concentration (enzyme 10 μg/mL, 60 min): BLQ | (GR)6 concentration (enzyme 10 μg/mL, 60 min): BLQ | (GR)8 concentration (enzyme 10 μg/mL, 60 min): BLQ | (GR)10 concentration (enzyme 10 μg/mL, 60 min): BLQ | (GR)1 concentration (enzyme 10 μg/mL, 120 min): 349.9 µM | (GR)2 concentration (enzyme 10 μg/mL, 120 min): 10.7 µM | (GR)3 concentration (enzyme 10 μg/mL, 120 min): BLQ | (GR)4 concentration (enzyme 10 μg/mL, 120 min): BLQ | (GR)5 concentration (enzyme 10 μg/mL, 120 min): BLQ | (GR)6 concentration (enzyme 10 μg/mL, 120 min): BLQ | (GR)8 concentration (enzyme 10 μg/mL, 120 min): BLQ | (GR)10 concentration (enzyme 10 μg/mL, 120 min): BLQ | (GR)1 (in solution - 5 min reaction): 178.0 µM | (GR)2 (in solution - 5 min reaction): 0.0 µM | (GR)3 (in solution - 5 min reaction): 0.0 µM | (GR)4 (in solution - 5 min reaction): 0.0 µM | (GR)5 (in solution - 5 min reaction): 0.0 µM | (GR)6 (in solution - 5 min reaction): 0.0 µM | (GR)8 (in solution - 5 min reaction): 0.0 µM | (GR)10 (in solution - 5 min reaction): 0.0 µM | (GR)1 (in solution - 60 min reaction): 321.4 µM | (GR)2 (in solution - 60 min reaction): 154.0 µM | (GR)3 (in solution - 60 min reaction): 0.0 µM | (GR)4 (in solution - 60 min reaction): 0.0 µM | (GR)5 (in solution - 60 min reaction): 0.0 µM | (GR)6 (in solution - 60 min reaction): 0.0 µM | (GR)8 (in solution - 60 min reaction): 0.0 µM | (GR)10 (in solution - 60 min reaction): 0.0 µM
